For one protein, Km and kcat results are on record in paper doi:10.1101/495473v2.

The term Km denotes the substrate concentration at which the rate is half of its maximum. In general, kcat refers to the maximal rate divided by the concentration of active sites.

Test in all cases: purified protein
Holding throughout (conditions): 5 mM MgCl2, 200 mM Tricine-NaOH pH 7.4, 37 °C

Substrate in data set [1]: O=P(O)(O)OC(CO)CO
Substrate in data set [2]: O=C(O)COP(=O)(O)O
Substrate in data set [3]: C[C@H](OP(=O)(O)O)C(=O)O

B1: PbPGP (Plasmodium berghei ANKA) (protein)
chain: MSLIVSEASQNNYFKDSENSYNSFMKEWKIEKRVNVKDLYQNFEVFFFDCDGVLWRGDTVINGAIEVINKLISDNKKVYFITNNSTKSRDTLLGKFHKLGFTCVKKEHIICTSYAIAKYFHSKEEYKSRKKKIYVIGEKGICDELDALNLVWLGSYKDNDKKVIIQDEGEIQIDNNIGAVVVAIDFNINYYKIQYAQLCINGLDAEFIVSNKDPLANFTSNQQWAGTGSIVASIEQVSFKKPKVLGKPNLFMIESVLKSLNIDLSKVVMIGDRLDTDIFFAQNCKIKSILVSTGVTDANVFLNHNNLNIKPDYFMKSILEFL
Regarding B1, the Km in “purified protein [1]” is 2110 ± 11 µM; in the data set “purified protein [2]” it was 2526 ± 494 µM; in “purified protein [3]” it was 4773 ± 574 µM. The kcat in “purified protein [1]” turned out to be 10.18 ± 0.08 s⁻¹; in “purified protein [2]”, 75.15 ± 7.86 s⁻¹; in “purified protein [3]”, 67.34 ± 8.31 s⁻¹.
